The results in this text go back to patent US20260078196A1 (TJ BIOPHARMA SHANGHAI, published 2026).

Numbering of substitutions follows the chain as printed. Like-named read-outs stand apart in the source and are kept apart here.

Assay [1] addresses T1, ROR1 on cells (UniProt Q01973 30-937).
T1 construct: whole, on cells; also called ROR1 endogenous expressed tumor cell A549; ROR1-positive tumor cell lines
In words: flow cytometry (gMFI) on MDA-MB-231 cells.

In assay [2] the target is T2, ROR1 antigen (UniProt Q01973 30-406, limits assumed).
T2 construct: Soluble antigen of the Octet binning and of the SPR assay
The assay is described as follows: SPR, binding to ROR1. In general terms: In SPR one partner is held on a chip, and binding of the other changes the refractive index at the surface.

Assay [3] deals with T2, ROR1 antigen. The assay is described as follows: SPR on ROR1.
The target in assay [4] is T1, ROR1 on cells. The assay is described as follows: flow cytometry (gMFI) on A549 cells. On the technique in general: Flow cytometry measures light scatter and fluorescence of single cells or particles in a stream.
The target in assay [5] is T3, human MUC16 on cells (human, UniProt Q8WXI7 1-14507).
T3 construct: whole, on cells; also called huMUC16; MUC16 on OVCAR3 and SNU216 cells
In words: flow cytometry (MFI GeoMean) on OVCAR3 cells, nM is the unit of the x axis Log10[Ab] (nM).

The target of another assay is T4, huMUC16, AA14198-14507.
T4 chain: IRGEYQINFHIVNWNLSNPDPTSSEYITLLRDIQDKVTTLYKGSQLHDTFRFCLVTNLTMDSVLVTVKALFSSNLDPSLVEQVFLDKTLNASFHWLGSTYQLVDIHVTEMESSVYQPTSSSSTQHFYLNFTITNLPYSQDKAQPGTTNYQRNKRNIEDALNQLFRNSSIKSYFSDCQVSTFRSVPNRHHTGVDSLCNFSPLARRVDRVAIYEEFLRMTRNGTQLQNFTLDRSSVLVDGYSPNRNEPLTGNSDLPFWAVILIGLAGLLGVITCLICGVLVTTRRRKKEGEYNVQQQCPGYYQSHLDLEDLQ
The assay is described as follows: binding ELISA on huMUC16 AA14198-14507.

The target of another assay is T5, huMUC16, AA13789-14451.
T5 construct: also called MUC16 Antigen (human MUC16 AA13789-14451)
T5 chain: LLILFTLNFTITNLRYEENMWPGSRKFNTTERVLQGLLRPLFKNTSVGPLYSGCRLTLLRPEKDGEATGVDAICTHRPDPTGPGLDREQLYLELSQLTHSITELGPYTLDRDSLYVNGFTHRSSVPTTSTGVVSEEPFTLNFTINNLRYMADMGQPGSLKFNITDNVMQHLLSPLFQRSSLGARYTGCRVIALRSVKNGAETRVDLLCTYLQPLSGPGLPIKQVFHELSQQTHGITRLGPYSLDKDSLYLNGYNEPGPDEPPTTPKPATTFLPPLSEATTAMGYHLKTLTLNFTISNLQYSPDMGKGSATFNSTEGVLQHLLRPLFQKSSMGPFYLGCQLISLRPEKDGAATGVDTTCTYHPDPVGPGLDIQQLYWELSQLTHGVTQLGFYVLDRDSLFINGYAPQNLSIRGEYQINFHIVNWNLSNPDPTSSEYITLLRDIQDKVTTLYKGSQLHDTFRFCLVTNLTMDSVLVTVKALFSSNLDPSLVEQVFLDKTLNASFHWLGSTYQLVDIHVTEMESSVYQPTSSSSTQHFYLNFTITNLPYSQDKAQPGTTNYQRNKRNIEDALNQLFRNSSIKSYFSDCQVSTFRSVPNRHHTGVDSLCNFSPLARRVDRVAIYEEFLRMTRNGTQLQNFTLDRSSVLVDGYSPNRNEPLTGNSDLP
In words: binding ELISA on huMUC16 AA13789-14451. A general note: ELISA stands for enzyme-linked immunosorbent assay.

Assay [6] has as its target T3, human MUC16 on cells. In words: flow cytometry (GMFI) on OVCAR3 cells; same value as in FIG. 11A, nM is the unit of the x axis.
In assay [7] the target is T3, human MUC16 on cells. The assay is described as follows: flow cytometry (MFI GeoMean) on SNU216 cells, nM is the unit of the x axis Log10[Ab] (nM).
Assay [8] concerns the target T3, human MUC16 on cells. In words: flow cytometry (GMFI) on OVCAR3 cells, nM is the unit of the x axis Log10[Ab] (nM).
For assay [9], the target named is T6, HEK293-MUC16 (13810-14507) (human, UniProt Q8WXI7 13810-14507).
T6 construct: range 13810-14507; also called MUC16 overexpressed HEK293 cells
T6 sequence: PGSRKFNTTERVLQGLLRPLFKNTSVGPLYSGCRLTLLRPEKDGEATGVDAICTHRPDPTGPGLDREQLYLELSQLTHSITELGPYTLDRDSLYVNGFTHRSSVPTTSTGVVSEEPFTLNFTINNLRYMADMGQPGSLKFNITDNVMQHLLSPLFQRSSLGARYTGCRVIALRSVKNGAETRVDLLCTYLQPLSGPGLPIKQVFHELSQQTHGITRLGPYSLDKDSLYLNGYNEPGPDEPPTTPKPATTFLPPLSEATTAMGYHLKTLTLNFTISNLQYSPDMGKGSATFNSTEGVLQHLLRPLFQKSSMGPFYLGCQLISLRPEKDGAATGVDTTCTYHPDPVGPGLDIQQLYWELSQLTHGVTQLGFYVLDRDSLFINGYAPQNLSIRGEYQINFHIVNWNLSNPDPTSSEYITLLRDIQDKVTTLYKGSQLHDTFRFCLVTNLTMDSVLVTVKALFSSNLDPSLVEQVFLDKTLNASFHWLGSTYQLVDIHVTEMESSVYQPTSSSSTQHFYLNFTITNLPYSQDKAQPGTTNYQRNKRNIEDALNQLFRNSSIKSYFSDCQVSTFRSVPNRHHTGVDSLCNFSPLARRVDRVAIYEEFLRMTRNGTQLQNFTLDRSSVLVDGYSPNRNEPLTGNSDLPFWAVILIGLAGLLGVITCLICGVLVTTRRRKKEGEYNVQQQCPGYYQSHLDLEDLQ
In words: flow cytometry (MFI GeoMean) on HEK293-MUC16 (13810-14507) cells, nM is the unit of the x axis Log10[Ab] (nM).

Assay [10] has as its target T2, ROR1 antigen. In words: SPR on ROR1. The source holds these as a separate data set.
For assay [11], the target named is T2, ROR1 antigen. The assay is described as follows: SPR on ROR1. This is another data set of the same source.
In assay [12] the target is T1, ROR1 on cells. The assay is described as follows: flow cytometry (gMFI) on A549 cells. The source holds these as a separate data set.

B1: 4B-8F2 (humanized) or 4B-h8F2 (bispecific antibody, human IgG1, kappa)
heavy: not shown
light: DIVMTQTPLSLSVTPGQPASISCKSSQSLLHSNGKTYLNWYLQKPGQSPQLLIYLVSKLESGVPDRFSGSGSGTDFTLKISRVEAEDVGVYYCLQATYFPYTFGQGTKLEIKRTVAAPSVFIFPPSDEQLKSGTASVVCLLNNFYPREAKVQWKVDNALQSGNSQESVTEQDSKDSTYSLSSTLTLSKADYEKHKVYACEVTHQGLSSPVTKSFNRGEC
notes: Humanized ROR1 x 4-1BB BsAb
Regarding B1, the EC50 (read off the curve) (as a rule, the midpoint of the concentration-response curve) in the assay with ROR1 on cells [1] was around 0.01 nM. The Kd – broadly, a measure of binding affinity in units of concentration – with ROR1 antigen [2] is 237 nM. Moreover, in the assay with ROR1 antigen [3], the koff (commonly the first-order rate constant of dissociation) came to 0.0592 s⁻¹ and the kon – broadly, the rate constant with which the complex forms – was 250000 M⁻¹ s⁻¹. In the assay with ROR1 on cells [4], the “EC50 (read off the curve)” value is around 0.03 nM.

B2: M16-2 (antibody, human IgG1, kappa, N297A, V domains shown)
VH: EVQLVESGGGLEQPGRSLRLSCTASGFAFGDHTMSWVRQAPGKGLEWVGFIRSRAYGGTTEYAASVKGRFTISRDDSKSIAYLQMDSLKTEDTAVYYCTSGGYDSSLHYYYYYHGMDVWGRGTTVTVSS
VL: not shown
notes: Benchmark anti-MUC16 antibody; also called benchmarker antibody M16-2
In the case of B2, the EC50 (commonly the concentration that produces a half-maximal response) in the assay with human MUC16 on cells [5] was 0.274 nM; in the assay with human MUC16 on cells [6] it was 0.257 nM; with human MUC16 on cells [7], 0.152 nM; with human MUC16 on cells [8], 0.257 nM; in [9], 0.423 nM. The binding result in the assay with huMUC16, AA14198-14507 is listed as “no binding (tested: 100 nM)”; with huMUC16, AA13789-14451 it was “binds”.

B3: 4B-BiR1(Humanized) or 4B-hBiR1 (bispecific antibody, human IgG1, kappa)
heavy: not shown
chain: DIVMTQTPLSLSVTPGQPASISCKSSQSLLHSNGKTYLNWYLQKPGQSPQLLIYLVSKLESGVPDRFSGSGSGTDFTLKISRVEAEDVGVYYCLQATYFPYTFGQGTKLEIKGGGGSGGGGSGGGGSQVQLVQSGAEVKKPGASVKVSCKASGYTFTTYVMHWVRQAPGQGLEWMGYINPYNGGIRYNEKFKGRVTMTRDTSTSTVYMELSSLRSEDTAVYYCARRERGVYYGMDEWGQGTLVTVSSAAEPKSSDKTHTCPPCPAPELLGGPSVFLFPPKPKDTLMISRTPEVTCVVVDVSHEDPEVKFNWYVDGVEVHNAKTKPREEQYNSTYRVVSVLTVLHQDWLNGKEYKCKVSNKALPAPIEKTISKAKGQPREPQVCTLPPSREEMTKNQVSLSCAVKGFYPSDIAVEWESNGQPENNYKTTPPVLDSDGSFFLVSKLTVDKSRWQQGNVFSCSVMHEALHNHYTQKSLSLSPGKGGGGSGGGGSGGGGSQVQLQESGGGLVQPGGSLRLSCAASGYTYSSNCMGWFRQAPGKGLEGVAVICTGGGSPSYADSVKGRFTISRDNAKNTLYLQMNSLRAEDTAVYYCAADLLRAGTPLSSYEFNYWGQGTLVTVSS
light: DIQMTQSPSSLSASVGDRVTITCRASQDIYSYLSWFQQKPGKAPKTLIYRANRLVDAVPSRFSGSGSGQDYTLTISSLQPEDFATYYCLQYDEFPYTFGQGTKLEIKRTVAAPSVFIFPPSDEQLKSGTASVVCLLNNFYPREAKVQWKVDNALQSGNSQESVTEQDSKDSTYSLSSTLTLSKADYEKHKVYACEVTHQGLSSPVTKSFNRGEC
notes: Humanized bi-paratopic ROR1 x 4-1BB antibody: h3C5 IgG half with VHH plus h8F2 scFv-Fc-VHH; also called 4-hiBiR1
B3: in the assay with ROR1 on cells [1], the “EC50 (read off the curve)” value was around 0.06 nM. Moreover, in the assay with ROR1 antigen [10], the koff turned out to be 0.00114 s⁻¹ and the kon was 93600 M⁻¹ s⁻¹. Moreover, in the assay with ROR1 antigen [2], the Kd came to 12.1 nM. Besides, in the assay with ROR1 on cells [4], the “EC50 (read off the curve)” value was around 0.1 nM.

B4: 4B-3C5 (humanized) or 4B-h3C5 (bispecific antibody, human IgG1, kappa)
heavy: not shown
light: B3 light
notes: Humanized ROR1 x 4-1BB BsAb; also called humanized 3C5 IgG x 4-1BB VHH
Turning to B4, in the assay with ROR1 on cells [1], the concentration giving a half-maximal response (EC50 (read off the curve)) is around 0.03 nM. In the assay with ROR1 antigen [11], the koff was 0.00821 s⁻¹ and the kon is 104000 M⁻¹ s⁻¹. Moreover, the Kd with ROR1 antigen [2] was 79.3 nM. The “EC50 (read off the curve)” value in the assay with ROR1 on cells [4] is around 0.03 nM.

B5: 8F2 (antibody, V domains shown)
VH: EVQLQQSGPELVKPGASVKMSCKASGYTFTTYVMHWVKQKPGQGLEWIGYINPYNGGIRYNEKFKGKATLTSDKSSSTAYMELSSLTSEDSAVYYCARRERGVYYGMDEWGQGTSVTVSS
VL: DVVMTQTPLTLSVTIGQPASISCKSSQSLLHSNGKTYLNWLLQRPGQSPNLLIYLVSKLESGVPDRFSGSGSGTDFTLKISRVEAEDLGVYYCLQATYFPYTFGSGTKLEIK
notes: Anti-ROR1 mAb (chimeric section 9.1); also called anti-ROR1 mAb 8F2
For the molecule B5, the “EC50 (read off the curve)” value with ROR1 on cells [12] is around 0.02 nM.

B6: humanized 8F2 anti-ROR1 mAb (antibody, V domains shown)
VH: QVQLVQSGAEVKKPGASVKVSCKASGYTFTTYVMHWVRQAPGQGLEWMGYINPYNGGIRYNEKFKGRVTMTRDTSTSTVYMELSSLRSEDTAVYYCARRERGVYYGMDEWGQGTLVTVSS
VL: B5 VL with V2I, T10S, I15P, L41Y, R44K, N50Q, L88V, S105Q
notes: also called h8F2
Consider B6, for which, in the assay with ROR1 on cells [12], the binding result is reported as “binds”.

B7: M16-1 (antibody, human IgG1, kappa, N297A, V domains shown)
VH: QVQLVESGGGLVKPGGSLRLSCAASGFTFSNYYMSWVRQAPGKGLEWISYISGRGSTIFYADSVKGRITISRDNAKNSLFLQMNSLRAEDTAVYFCVKDRGGYSPYWGQGTLVTVSS
VL: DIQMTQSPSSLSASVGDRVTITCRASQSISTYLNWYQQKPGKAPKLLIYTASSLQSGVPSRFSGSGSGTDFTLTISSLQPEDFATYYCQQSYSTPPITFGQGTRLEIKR
notes: also called benchmarker antibody M16-1
As to B7, the binding result with huMUC16, AA13789-14451 was “binds”. Also, the EC50 with human MUC16 on cells [6] and with human MUC16 on cells [8] was 0.192 nM each time.
